Reference: publication PMC8779868, “Uncovering Novel Plasma Membrane Carboxylate Transporters in the Yeast Cyberlindnera jadinii” (Journal of Fungi, 2022)

Key:
CjSlc16 = target: T1, CjSlc16 (Williopsis jadinii, UniProt A0A1E4RTM6); conditions: pH 6.0, 30 °C; labelled compound
T1 construct: gene CYBJADRAFT_170140

CjSlc13-2 = target: T2, CjSlc13-2 (Williopsis jadinii, UniProt A0A1E4S914); conditions: pH 6.0, 30 °C; labelled compound
T2 construct: gene CYBJADRAFT_165372

CjSlc13-1 = target: T3, CjSlc13-1 (Williopsis jadinii, UniProt A0A1E4RYH4); conditions: pH 6.0, 30 °C; labelled compound
T3 construct: gene CYBJADRAFT_194887

[1] = substrate: CC(=O)O; assay: cells, lysate or membranes; conditions: pH 6.0, 30 °C, labelled compound, pH 6.0
[2] = substrate: O=C(O)CC(O)(CC(=O)O)C(=O)O; assay: cells, lysate or membranes; conditions: pH 5.5, 30 °C, labelled compound, pH 5.5
[3] = substrate: C[C@H](O)C(=O)O; assay: cells, lysate or membranes; conditions: pH 5.0, 30 °C, labelled compound, pH 5.0

T2 sequence (A0A1E4S914 1-821): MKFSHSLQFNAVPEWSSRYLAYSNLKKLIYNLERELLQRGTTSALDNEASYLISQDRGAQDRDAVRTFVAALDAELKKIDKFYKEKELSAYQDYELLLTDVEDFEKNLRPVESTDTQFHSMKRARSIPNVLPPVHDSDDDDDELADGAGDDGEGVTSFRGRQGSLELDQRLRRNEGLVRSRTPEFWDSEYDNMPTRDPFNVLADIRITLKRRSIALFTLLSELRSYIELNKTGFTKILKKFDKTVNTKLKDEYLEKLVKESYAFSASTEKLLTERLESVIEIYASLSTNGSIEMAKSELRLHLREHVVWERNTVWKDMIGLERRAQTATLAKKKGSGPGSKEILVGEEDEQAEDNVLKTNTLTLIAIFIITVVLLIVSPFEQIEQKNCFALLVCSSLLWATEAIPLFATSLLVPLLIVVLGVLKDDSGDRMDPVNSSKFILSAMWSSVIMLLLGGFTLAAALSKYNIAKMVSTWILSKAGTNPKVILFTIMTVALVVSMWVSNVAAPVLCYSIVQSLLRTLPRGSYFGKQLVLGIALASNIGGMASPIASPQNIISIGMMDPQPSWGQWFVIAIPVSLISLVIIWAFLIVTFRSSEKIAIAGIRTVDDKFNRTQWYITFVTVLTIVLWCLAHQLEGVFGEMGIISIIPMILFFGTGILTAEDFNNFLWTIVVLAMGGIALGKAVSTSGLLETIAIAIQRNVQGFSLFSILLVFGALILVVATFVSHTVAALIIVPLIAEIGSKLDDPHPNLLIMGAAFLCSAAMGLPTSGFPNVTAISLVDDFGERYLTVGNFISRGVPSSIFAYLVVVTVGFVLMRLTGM
T3 sequence (A0A1E4RYH4 1-843): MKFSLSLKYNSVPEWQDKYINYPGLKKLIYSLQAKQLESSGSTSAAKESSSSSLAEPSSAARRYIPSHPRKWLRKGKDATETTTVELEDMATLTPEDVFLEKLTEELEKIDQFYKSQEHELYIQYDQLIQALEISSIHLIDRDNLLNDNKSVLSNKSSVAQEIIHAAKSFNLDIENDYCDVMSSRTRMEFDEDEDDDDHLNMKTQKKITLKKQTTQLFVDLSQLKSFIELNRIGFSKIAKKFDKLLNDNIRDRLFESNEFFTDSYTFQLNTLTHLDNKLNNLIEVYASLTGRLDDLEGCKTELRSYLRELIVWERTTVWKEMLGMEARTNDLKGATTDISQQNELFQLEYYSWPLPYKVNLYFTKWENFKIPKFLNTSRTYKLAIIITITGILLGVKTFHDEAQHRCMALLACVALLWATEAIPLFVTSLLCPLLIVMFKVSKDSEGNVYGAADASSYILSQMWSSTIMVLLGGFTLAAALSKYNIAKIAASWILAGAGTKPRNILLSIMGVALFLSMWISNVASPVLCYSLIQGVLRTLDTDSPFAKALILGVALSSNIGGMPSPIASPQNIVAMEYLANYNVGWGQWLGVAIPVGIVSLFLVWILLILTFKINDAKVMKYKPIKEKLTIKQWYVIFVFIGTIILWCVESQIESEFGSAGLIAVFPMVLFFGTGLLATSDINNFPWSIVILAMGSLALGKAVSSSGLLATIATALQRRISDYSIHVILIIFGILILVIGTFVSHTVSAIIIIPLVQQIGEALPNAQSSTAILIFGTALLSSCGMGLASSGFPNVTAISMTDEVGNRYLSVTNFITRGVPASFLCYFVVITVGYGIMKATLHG
T1 sequence (A0A1E4RTM6 1-470): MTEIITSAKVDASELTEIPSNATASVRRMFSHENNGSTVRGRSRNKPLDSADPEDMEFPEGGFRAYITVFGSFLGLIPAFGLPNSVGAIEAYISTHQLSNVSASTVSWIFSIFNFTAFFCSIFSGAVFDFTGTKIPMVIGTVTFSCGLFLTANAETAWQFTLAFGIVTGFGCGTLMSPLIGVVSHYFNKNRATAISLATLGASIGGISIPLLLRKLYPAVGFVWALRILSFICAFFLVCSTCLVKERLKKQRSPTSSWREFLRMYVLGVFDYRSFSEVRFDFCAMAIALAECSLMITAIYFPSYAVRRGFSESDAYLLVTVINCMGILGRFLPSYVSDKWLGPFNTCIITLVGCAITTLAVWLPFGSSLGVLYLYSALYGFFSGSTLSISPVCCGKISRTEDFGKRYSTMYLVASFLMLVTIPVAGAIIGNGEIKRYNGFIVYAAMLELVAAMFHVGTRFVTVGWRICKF

| Molecule | Km [1] | other results |
| --- | --- | --- |
| CC(=O)O [acetic acid] | – | uptake (CjSlc16): All transformants presented activity for acetate uptake (Figure 3C); uptake (CjSlc13-2): All transformants presented activity for acetate uptake (Figure 3C); uptake (CjSlc13-1): All transformants presented activity for acetate uptake (Figure 3C) |
| CjJen5 (Williopsis jadinii) (protein) MDWDAFDFFVMSLNVSKLATDLDRSVKDISWGITVVLMFRSVGAIVFGYFGDRYGRKWPLIVNLFCLVVIQIGTGFINTYAEFIGVRALFGVFMGSMYGLASATAMEGLPTSARSFLSGVYQQGYALGYLLGVIFQRAITDTTTHTWRSLFWFSAGPPKLKPFLQQQLHMKNKNTSFSEDACKVFKEQWLKMIYLVLLMAGMNFMSHGSQDLYPTMLTVQLNYSPNRSTVTNSVANLGALAGGMTFGHFSGFLGRRSGIIICSILGACMIYPWAFVRNSGINAGVFFLQFFVQGAWGVIPIHLSELSPPEFRAFVVGVSYQLGNLASSASSTIESTLGERYPLYDDNGDVIEGVYDYARVMAIFVGAVFCYVILIAFIGPENRHSNINYVLSKEEEEELIQQRMIVTNNGSEQDSNADDEEKLVTAHTEKIEPK | 5.18 ± 1.51 mM | – |
| CjJen4 (Williopsis jadinii) (protein) MTAGRYIATRIPSLFTLPGTPVKSLNPAPAMRALSRSDWNYFAMGYCAWVIDAFDFFCVSACAPALAKAFDRSIHDITWGITLVLMTRSLGAVIFGSLSDTYGRKPTYLAVMALFSIIEIGTGFVQNYTQFLIVRLLFGICMGGCYTTASATALESQPTTSRSVLGGIFLPGYNLGYILAVAFYRAFEFSTHGWRALFWFSAAPPAILFMWRLMFPEHPHFVEHKRVQREKALAEGNHAQAASPWRQFYSDLKKALSNHWLMFVYLVFYLSLMNFSSHASQDLMPTMLQNQLFFSANQRTAIMIVVNLGAMVGGLCVGTLSEFTGRRLAIFSCAVGSSALIYPAFFSTSIGGLMAGGFFMQFFVMGCWGVCSVYIMELSPPAFRALFGGLAYQLGNLASSASSTIESEISSSFPLPDLGPSVYDYAKSMALFMVGVNVCLIVCIVCGPEYFHRDFSAHAEENYSDQKKATIEQFDTASDEERAMGSLKMNTEVEEFDMDKASVQHRESARD | 1.62 ± 0.43 mM | – |
| CjAto1 (Williopsis jadinii) (protein) MSDKESQMLNTSQSQERAIDAGCDDLQEDVEHQQVPVSKVFTSGERDEYVMIGRTKVLRSELWNAFGGDLQPGIHAPPPRRFANPAPLGLCGFALTTFVLSMSNARAMGITVANVAVGPAFFYGGIIQLLSGMWEISLDNTFGGTVLSSYGGFWLSWAAIQIDWFGIQRAYDDPIMLNNGLGFFLLGWVIFTLMVLICTVKSTVAFFSLFFFLEMTFLLLTIGEFTRSVGVTRAAGVFGVITSFLGWYNALAGFATRENSYFVATAVPLPGAKRAQVHS | 12.18 ± 4.67 mM | – |
| CjAto4 (Williopsis jadinii) (protein) MSDKENQTLNNPQTQDYASTGGKPDVEHGEIPVSKVYTTGDQDEYLMIGHQKVLRSELWTAFGGDLQPGVHAPPPQRLANPAPLGLCGFALTTFVLSMANARAMGVTIPNAAVGAACFYGGLVQLLAGMWEISLDNTFGGTALSSYGGFWMSWAAIQIDWFGIKKAYDDPIMLANAVGFFLLGWTIFTFMLVLCTVKSTVAFFSLFFFLDITFLLLTIGEFTRKTGVSRAGGVFGVITSFIAWYNAFAGLATKENSYVVAIPLPLPGAKRS | 1.28 ± 0.38 mM | – |
| CjJen3 (Williopsis jadinii) (protein) MAMSDVKRYILSRVPTLFCIPGTSFQALNPVPALSALSRNDWNYFLMGYAAWTIDAFDFFCVSACAPALAQALDRSVTDITWGITLVLMTREYFAHIDGQLTDIFEIGSLGAVIFGSLSDTYGRKPTYLAVMCLFCIIEVGTGFVQNYTQFLVVRAMFGICMGGCYTTASATALESQPVGSRSVLGGIFLPGYNLGYILAVAFYRAFEFTEHGWRALFWFSAAPPAILFVWRMFFPEHPHFTALKRVQREKALSEGKHHQASSPWAQFFADLKSAMRHHWLMFVYLVIYMSLMNFSSHASQDLMPTMLQNQLGFEANDRTIIMVVINIGAIFGGLCVGTISEYTGRRLAVFVCTICSSALIYPAFYTTDMAGLICGGFFMQFFVMGCWGVTSVYIMELSPNAFRALFGGLAYQLGNLASSASSTIEAEISEAFPLSDIGPEVYDYARSMALFMVGVNVCLVICIVSGPEKFHKDFSIQGEGQEQLQRKSCNDVDEELAIEYTEDLKHTDRVSWTEKHSIHHNEKT | 3.21 ± 1.07 mM | – |
| CjAto5 (Williopsis jadinii) (protein) MSTSSLPEDLEKGYATQSLHEMNTAVTNDPSQPVVMRVVTSSNGDIIHLGNQAFSKKDLFNAFAGDLQPGLHATPHRPMGNPVPMGLTSFCICCFVVSLVNAQARGVTNAKVIASCALFFAGVVETISGLWCLVIENTFAATALGSFGGFWMGYAGLLIDAFGITSSYSTTEELGNALGFYLTAWTIFAFLMWLCTFKSTWPFFILFLLVWVFLMCLAIGKYNDNTTATKAGGVLGLVATFVGFFIVYAGVADSSNSYLTIPASPMPHAPRV | – | Km [2]: 22.21 ± 7.14 mM |
| CjAto2 (Williopsis jadinii) (protein) MSSINEDLEKISSLGELNYDSHPISQVRTAGPNDEFVMLGRMKVRKSELWSAFGGDLQPGVHAQPQRKFANPVPIGLCGFALTTLVLSMANARAMGIRTPNVAVAPAFFYGGFAQILAGMWEIALENTFGSVVLTSYGCFWLSWAAIEIDWFGIKAAYDDPIELENAIGFFLLGWVIFTFLILLCTMKSTVAFFSMFFLLEITFILLTVASFTRHVGCQRAGGVFGVITGFLAWYNAYAGIATKEISYFVPKPWPLPGASHL | – | Km [3]: 4.33 ± 0.70 mM |
| CjJen6 (Williopsis jadinii) (protein) MGFKTYSMSECAQYTRERFTTLLPSREQWEVEKSHMNPFPGLRAMTWRNWQFYIIGMLAWTWDALDFFAMSLNMSNISEDLNRSVKDVSWGITLVLMFRSVGAIFFGYFGDRYGRKWPLIVNLICLIVIQIGTGFVKTYSEFLGVRALFGIFMGSMYGLASATALEGLPTDARSFLSGVFQQGYALGYLLAVIFQRAITDTTEKGWRSLFWFSAGPPVLFILWRAFLPETEEFLQQKLHMSNRKSTFRRDAWNTFKQQWVKMGYLVLLMAGMNFMSHGSQDLYPTMLTKQLGFSSDRSTVTNSVANLGAMAGGMVIGHFSGFIGRRAAIMVCCICGGAMIYPWAFVTGNGINAGVFFLQFFVQGAWGVIPIHLSELSPPEFRAFVVGVSYQLGNLVSSASSTIETTIGERFPLYTETGERREGVYDYAKVMAIFVGAVFAYVFLISFIGPENRHANINFVLSDEEQREMVSQGKIITHKGSDDENLDEEKAVAFHTENVVSEVK | – | Km [2]: 21.44 ± 7.17 mM |
| CjSlc5 (Williopsis jadinii) (protein) MFAETEDGPDYRGVTTFGAAVLIAKGQLGLGVLGIPSTFDVLGFVPGLISLVGLSILVTWTGVVIGQFRLAHPKVYCIDDATEIMFGKAARELVGWGYWLFYTMCYGAALITVSIALNTFSDHGLCTMAFIGIATGATTILTLFTRTMKVLSWLGFIAISCIFFAIWVVAIACLTQSTPAAAESLVDPAKKVIQVVATHSSYKKIAAAVSVQLLSLAGGASFFTIHAEMKDQTKYTKSLLMGQGFIVFNYIAIACIMYAKVGQYIASPALGSAGRTFQIISYGIAFPGLMFSCFFLAHLAAKYALVRILRGTEHLQKNSKTHWITWTAMVAIVIAVGFVIAGAIPFFGDLLGLIGALLGSIFALIAPGFMCLYDMNYKFEGKVPRGYTWIYKNNGSWTKNFWTKLETLLSFFCIASGIYILFTGVYGSIASIADLYSSGAVSGAFSCADNS | – | Km [2]: 17.24 ± 4.73 mM |
| CjAto3 (Williopsis jadinii) (protein) MAANVDLEKQATPNSSNDNHTFSPEDEAHPVSKVYTSGENDQYIMIGRTKVLRSELWNAFGGDLQPGIHATPPRRFANPAPLGLCAFALTTFVLSMVNARAMGITTPNIVVGLALFYGGFVQLLAGMWEIALDNTFGGTALSSYGGFWMSYAAIQIDWFGIKSAYTDPIELANAVSFFLLGWTIFTFMILLCTVKSTVSFFSLFFFLEITFLLLTIGDFTRRVGVTRAGGVFGVITAFIAWYNAFAGIATKENSYITIKAWPLPGAKRA | 9.17 ± 4.70 mM | – |
| CjJen2 (Williopsis jadinii) (protein) MTSPLPVSPTQDSGLEEPKEDKNIGLTRTLQENEEDSNSSNDEDVPDYSWSSIKRYSRTRFTTLGELHLDSLSDLNPLPALKEMTPRNWNFFFMGFIAWFSASFAFFLTAVSGTVIAESLEVSTKDITWGLSSVLMVRSAGAVIFGLWTDNYSRKWPFIATAAMFCVLQIGTGFCNTYTQFLAGGTYATAAATSLEDAPLKARSTLSGLFFTAYPFGMVFAAIFWRAFQETDHTWKALFWFSAGIPFVLIIWRLLYPETIYFTELLKVKKLIKEEASTSPKISKWAKTKTMFSKYWLLFTYLVLLLASSNFLTHASQDMYPTMLRSQFGWSNDAQTVAIVVTNLGGVIGSLVTGIVMEVLGRRLSILLCCVIGGSFIYPALMLHTTSATLGCGFFMMFGVLGVWGVIPAHLSELSPPDARVLVSGLAYQLGNLASSASSTIETDLAQRWPLEWDAEGNVIRLDYAKTIAVFTGAVFIYTVVIALVGPEKYHRDLNSPLLKKYFAKLRENDVEKGSSSE | 1.26 ± 0.35 mM | – |
| CjJen1 (Williopsis jadinii) (protein) MHKLEESVTRQDSIHEDPDDVVIEDEQEIILNWPNIVEYSKTRFTSLTHLHLHAVGDLNPLPSLREMSWNNWNFFFMGFVAWFSASFDFFLTAVSGTYIAQSLDVSTADITWGLSAVLMVRSAGAVIFGLWTDNYSRKWPFITTAAMFCALQIGTGFCKTYQQFMAVRAISGIAMGGTYATAAATSMDDAPLKARSFLSGLFFSAYAFGMIFAAIFWRAFESTKHSWKALFWFSSCFPFILICWRLVFPETRYFTRVLKARELIKQDQIEAGVYVKPTLKTKWGSVKAMLKKDWLLFTYLVILLAGTNYLTHASQDMYPTMLRSQLEWSLDAQTVAIVVVNLGAICGGLIAGTFMEVTGRRLAILICCVIGGCFVYPAYMMHNNSAVLGGGFFLFFAVIGVWGVLPIHLSELSPPDARALVSGLAYQLGNLASSASSTIETRLAKLWPLEWDAEGNPIKYDYAKTIACFTGAVFIYVFITTFIGPEKFHRDLSSPLLKTYIEKVIEIEEGRDPEAKFVTSSGDTSEQASYGKATHEEIELDCYPQEKK | 2.15 ± 0.60 mM | – |
